Reference: US20240026407A1, “MODIFICATION OF SAPONINS” (GLAXOSMITHKLINE BIOLOGICALS SA, priority 2020, published 2024)

Columns and labels:
Type in all cases: biochemical, Quillaja saponaria
[1] = Experiment 6-1: screening of rhamnosidases for derhamnosylation of saponins in treated bark extract (2%), desglucosyl-QS-17 2134 to QS-21 1988 (PAR %); details: TBE 2%, pH 7.5, 30 degC, 18 h; TIC peak area ratio percent, LCMS/MS; negative controls 2.719, 2.158
[2] = Experiment 6-1: specificity of rhamnosidases towards other rhamnose residues (C3 saccharide rhamnose, C28 saccharide rhamnose); details: TBE 2%, pH 7.5, 30 degC, 18 h; LCMS/MS; negative controls 0.18, 0.17
[3] = Experiment 6-1: screening of rhamnosidases for derhamnosylation of saponins in treated bark extract (2%), QS-17 2310 to QS-18 2164 (PAR %); details: TBE 2%, pH 7.5, 30 degC, 18 h; TIC peak area ratio percent, LCMS/MS; negative controls 3.061, 2.429
[4] = Experiment 6-1: screening of rhamnosidases for derhamnosylation of saponins in treated bark extract (2%), QS-17 2296 to QS-18 2150 (PAR %); details: TBE 2%, pH 7.5, 30 degC, 18 h; TIC peak area ratio percent of rhamnosylated starting saponin to derhamnosylated product, LCMS/MS; negative controls 4.876, 5.225

B1: 1015 (protein)
chain: MITIIGLGVEHSERGCVTDNPHPRFSYAVRSDRSDVVVDGARLAVGDWTCEAGDQTAVAYDGKPLEPFTEYHVTLDVSTADGEHAHAETTFETGRLGQGWQGRWISDAGYDFVEKKVSPVPMMFRKPFTCDPTKSVRKARLYATAMGVYDFACDGKRIGDRYFAPGFTSYKTNLQYQTYDVTDMVGAGAVHTLLATVAGGWAVGSFVFTRKNRVSADRQALLAELRIEYTDGSVEVIGTDASWEVSESGPVRMADLYDGETYDAMMDPGADGSRCKDWRHASLENPRSRPRHIEADYGAGVVAHETLSPVSVARRAGGELVYDFGQNLAGVVRMRIANGRAGQTVVVRHAEILNPDGSLNTAFLRTAKATATYRCADADGFPEGVQEYGPRFTYMGFRYVSVRGVAEDDLRIEAVVLHSDLRPIGDFACSDERLNQLQHNIVWGAKSNLMDIPTDCPQRDERMGWTGDIAVFAPTACLNFDMSRFLEKWLRDVKAEQLKTGGIPNTVPVQGYGFPATMPEMAIDWWGDACVLVPWAVYRSSGDATVLHDMYDTMKRYVKACRFWAGLIGFGKSRYIWNTPSMLHFGDWVAPDVPKMSQWQKRAKWTATASLNNTSRTLARVAEVLGYDEDARAYDELADKVADAYCSVLTDGNGRLDNEFQTGYVLPLYLNMFPETVRGNAVDHLVKLIEDNDYCIGTGFPGTPYILFALADNGREDVAYRMLLNTACPSWLYEVGMGATTIWERWDGLDENGECPIGDDGTDLMISYNHYASGAVGAFLYQRVAGIEAIGAAYRSFRVRPVLGGGLTWAKAHVDTPYGRVGSAWSLDGGRFSITVEVPVGTTCELALPDGTTMQLSNGVHTATCEM
modifications: Bifidobacterium moukalabense
In the case of B1, the “Peak75 (PAR %)” value [1] is reported as 2.969%, the “ratio PP/QS-21” value [2] is reported as 0.15 and the “Peak57 (PAR %)” value [3] is reported as 3.048%. The “QS-17 (PAR %)” value [4] was 4.132%.

B2: 1046 (protein)
chain: MQYWQKQLKFTSIILLSGLTLGGITACAEQDIAQLQNVEAEPSPVEQEAQTSLATSFKHPPHEAKPLTWLHAMSGNMSKAGLTKDLEAIAEAGLGGTMLFNVTQGIPLGKVKFNSTEHIDLIGHLAAESQRLGLSFGMHNCDGWTSSGGPWVTPEHSMKQITYNETIVDGGNVNIKLAQPATMLDYYQDIAVIAYPSLATEITDFTVKPKITASDANFDAQIVQNNNLTDYSSITPSNEQPGWLQFSYQQPYTLRLIDMLLHSGRGLNVSLHISDDGKNFKQVDNLTLRRPGKSTYAFDEAFAGYTAKHFRLVSNKVMHIKELRLSSTPSLDNFSGRTAASRSDYQEFEDIGKPSAELVIDPESVINLTASLNSEGQLITTLPAGKWTIMRFGYTSTGAVNIPASREGTGLEVDKFSKAAFKSHYDAYITNVIDKLKVVAPNALYSIEIDSYEVGAQNWTHNYEQLFQAQFGYDLVPFLPLFAGKFVESPTVAEAVLWDTRDLNNKLITENYYGYFRELAHQDGIKTYLEPYGSGPFNELDVASKADLPMGEFWLDNNNFRLSASASAAHIYNKPIVAAEAFTQFPRNNWLFHPAEGKADSDKSWALGVNQHVFHRFAHQANTHVMPGMTMNRWGAHMDRTQTWWTVAGKPWFKYVARGQQLLRTGHNVADVLWFLGDATPTTCPEKDPISAVLPLNINYDCLNSEVLQRLSVEDGKVTLPHGSQYKILVLNNHQTLTLKSLKKIYQLAQQGAVIVGTPVEQLAGRFVSEQQRQELKMMVDYIWSQPTTYNISTKAKTSHGHTGVFPTHEIAKTSKIDWQKIYNEQNWPLDLAIKNADKFYFTHRRSAQYDIYFIFNDSAQAQVFDARFNISGKIPELWDADTGNITQLGAFSDNGQITRVPLKLGAYDSVFVVFEKSSKAVTALKPEFVLSQPELDVVLDAQQQPKVIKTTHEAIEITGAWQVEFDKFYGLDKSFTFEQLIDWKLHPEQTIQDYSGTATYQKTIDVPAELLADNKQIFLDLGKVKVAANVYLNDKLAGSAWHAPYRIDISNFVQAGKNKLTIKVANLWVNRLLADRKLPDTSGFKIARWQNPITPMPQWYVDNQPAPKSERVTFVTQVFMDDNEPRQSSGLIGPVQLSVRSKTQL
modifications: Catenovulum agarivorans
For B2, the “Peak75 (PAR %)” value [1] was 2.446%, the “ratio PP/QS-21” value [2] was 0.13 and the “Peak57 (PAR %)” value [3] was 2.480%. The “QS-17 (PAR %)” value [4] was 4.051%.
